B1: receiving peptide MK(LKKIKSV)4VGER (peptide)
peptide: MKLKKIKSVLKKIKSVLKKIKSVLKKIKSVVGER
notes: With the docking peptide it is said to form a tetramer of two peptides of each type; also called V/K peptide

What was measured:
[1] = target: B1; assay: isothermal titration calorimetry (FIG. 2C); ITC, docking peptide with receiving peptide (FIG. 2C)
[2] = target: the molecule itself; assay: circular dichroism spectra, 200-260 nm

Row | Binder | Kd [1] | binding result [2]
1 | MKLEEIVSELEEIVSELEEIVTELEEIVSEVGER (also called V/E peptide) [docking peptide MK(LEEIVSE)2LEEIVTELEEIVSEVGER] | 62 nM | no binding (tested: 100 µM)
2 | B1 | – | no binding (tested: 100 µM)

Reference: patent US20190381186A1 (TRUSTEES OF BOSTON UNIVERSITY, published 2019)
